# Reference: paper PMC12749748, “Chemically-induced degradation of the endoplasmic-reticulum stress sensor IRE1 by a VHL-recruiting chimera” (Nature Communications, 2025)
# Molecular target: Biotinylated human IRE1.KR protein (human) (UniProt O75460)
# Test: SPR; Biacore S200, 20 °C; biotinylated IRE1.KR captured on a streptavidin chip (100-200 RU); VHL titrated without G6374, 8-point 2-fold series, top 5 µM, single cycle kinetics; 50 mM HEPES pH 7.4, 150 mM NaCl, 0.01% Tween 20, 0.2% PEG3350, 0.25 mM TCEP, 100 µg/ml ovalbumin, 2% DMSO
# Sequence of Biotinylated human IRE1.KR protein (human) (O75460 547-977): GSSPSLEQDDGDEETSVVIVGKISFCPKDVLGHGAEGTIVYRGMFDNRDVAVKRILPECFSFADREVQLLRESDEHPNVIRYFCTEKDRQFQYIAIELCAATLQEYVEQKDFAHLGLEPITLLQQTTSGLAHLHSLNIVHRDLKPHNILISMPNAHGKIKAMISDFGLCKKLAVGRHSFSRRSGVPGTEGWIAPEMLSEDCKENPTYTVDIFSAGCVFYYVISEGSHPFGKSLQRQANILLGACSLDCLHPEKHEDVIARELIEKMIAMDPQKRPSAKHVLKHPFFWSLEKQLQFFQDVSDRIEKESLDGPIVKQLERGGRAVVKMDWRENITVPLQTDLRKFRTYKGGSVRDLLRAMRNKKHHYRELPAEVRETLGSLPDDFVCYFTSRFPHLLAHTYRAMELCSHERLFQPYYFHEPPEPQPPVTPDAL
substance,measurement,value
his-VHL/EloB (VHL in complex with Elongin B) (from UniProt P40337 1-213; Q15370 1-118),KD without G6374,> 10 µM
